The source of these data is publication PMC12819141, “RNase MRP subunit composition and role in 40S ribosome biogenesis” (Nature Structural & Molecular Biology, 2025).

The target of this assay is T1, RPP29 (coexpressed with RMP24 in bacteria) (human, UniProt O95707 1-220).
T1 construct: RPP29 (POP4), human; codon-optimized bicistronic cassette with C18orf21/RMP24 in pGEX-6P-1; The pGEX-6P-1 vector adds GST to one of the two chains; Elution was by PreScission protease or by reduced glutathione; also called POP4; source: E. coli BL21-DE3, coexpressed with RMP24, purified (Glutathione-Agarose, S200 increase)
T1 sequence: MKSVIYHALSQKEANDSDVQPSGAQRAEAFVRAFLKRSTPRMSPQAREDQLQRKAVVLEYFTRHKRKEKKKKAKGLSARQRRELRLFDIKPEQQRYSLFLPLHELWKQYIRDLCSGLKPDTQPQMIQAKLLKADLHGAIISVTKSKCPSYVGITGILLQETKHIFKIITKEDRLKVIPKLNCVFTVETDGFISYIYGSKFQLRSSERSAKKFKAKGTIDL
As to the kind of experiment: SEC; RMP24 and RPP29 coexpressed in E. coli, isolated on Glutathione-Agarose, then passed over a Superdex S200 increase 10/300 GL column in 25 mM Tris HCl pH 8, 100 mM NaCl, 1 mM DTT; peak fractions on Coomassie-stained SDS–PAGE and LC–MS. The settings on record: both partners purified. Background: SEC sorts molecules by how far they enter the pores of the column.

B1: RMP24 (coexpressed with RPP29 in bacteria) (natural protein, human, UniProt Q32NC0 1-220, looked up)
chain: MRQKHYLEAAARGLHDSCPGQARYLLWAYTSSHDDKSTFEETCPYCFQLLVLDNSRVRLKPKARLTPKIQKLLNREARNYTLSFKEAKMVKKFKDSKSVLLITCKTCNRTVKHHGKSRSFVSTLKSNPATPTSKLSLKTPERRTANPNHDMSGSKGKSPASVFRTPTSGQSVSTCSSKNTSKTKKHFSQLKMLLSQNESQKIPKVDFRNFLSSLKGGLLK
notes: C18orf21 (RMP24), human; codon-optimized bicistronic cassette with RPP29 in pGEX-6P-1; The pGEX-6P-1 vector adds GST to one of the two chains; also called C18orf21; full-length RMP24; source: E. coli BL21-DE3, coexpressed with RPP29, purified (Glutathione-Agarose, S200 increase)
With B1, the binding result was “binds”.
